# Measurements taken from patent US20260374889 (published 2026).
# B1: P1AG7207 BCMA arm (antibody, V domains shown)
# VH: EVQLLESGGGLVQPGGSLRLSCAASGFTFSNAWMDWVRQAPGKGLEWVSQITAKSNNYATYYADSVKGRFTISRDNSKNTLYLQMNSLRAEDTAVYYCTDDGYHWGQGTLVTVSS
# VL: DIQMTQSPSSLSASVGDRVTITCRASEDIRNGLAWYQQKPGKAPKLLIYNANSLHTGVPSRFSGSGSGTDFTLTISSLQPEDFATYYCEDTSKYPYTFGQGTKLEIK
# B2: P1AG7196 BCMA arm (antibody, V domains shown)
# VH: EVQLLESGGGLVQPGGSLRLSCAASGFTFSNAWMDWVRQAPGKGLEWVSQITAKSNNYATYYADSVKGRFTISRDNSKNTLYLQMNSLRAEDTAVYYCTDDGYHWGQGTLVTVSS
# VL: DIQMTQSPSSLSASVGDRVTITCRASEDIRNGLAWYQQKPGKAPKLLIYNANSLHTGVPSRFSGSGSGTDFTLTISSLQPEDFATYYCEDTSKYPYTFGQGTKLEIK
# B3: BCMA (PR)-CD28v8 P1AF7062, BCMA arm (antibody, V domains shown)
# VH: EVQLLESGGGLVQPGGSLRLSCAASGFTFSSYAMNWVRQAPGKGLEWVSAITASGGSTYYADSVKGRFTISRDNSKNTLYLQMNSLRAEDTAVYYCARYWPMSLWGQGTLVTVSS
# VL: EIVLTQSPGTLSLSPGERATLSCRASQSVSAYYLAWYQQKPGQAPRLLMYDASIRATGIPDRFSGSGSGTDFTLTISRLEPEDFAVYYCQQYERWPLTFGQGTKVEIKR
# B4: BCMA (PR)-CD28v15 P1AE9053, BCMA arm (antibody, V domains shown)
# VH: EVQLLESGGGLVQPGGSLRLSCAASGFTFSSYAMNWVRQAPGKGLEWVSAITASGGSTYYADSVKGRFTISRDNSKNTLYLQMNSLRAEDTAVYYCARYWPMSLWGQGTLVTVSS
# VL: EIVLTQSPGTLSLSPGERATLSCRASQSVSAYYLAWYQQKPGQAPRLLMYDASIRATGIPDRFSGSGSGTDFTLTISRLEPEDFAVYYCQQYERWPLTFGQGTKVEIKR
# B5: P1AG7285 BCMA arm (antibody, V domains shown)
# VH: QVQLVQSGAEVKKPGASVKVSCKASGYTFTNYWMHWVRQAPGQGLEWMGIIHPNSGSTNYNEKFQGRVTMTRDTSTSTVYMELSSLRSEDTAVYYCARGIYDYPFAYWGQGTLVTVSS
# VL: DIQMTQSPSSLSASVGDRVTITCRASESVSIHGTHLMHWYQQKPGKAPKLLIYAASSLQSGVPSRFSGSGSETDFTLTISSLQPEDFATYYCQQSIEDPYTFGGGTKVEIK
# B6: P1AG7191 BCMA arm (antibody, V domains shown)
# VH: QVQLVQSGAEVKKPGASVKVSCKASGYTFTNYWMHWVRQAPGQGLEWMGIIHPNSGSTNYNEKFQGRVTMTRDTSTSTVYMELSSLRSEDTAVYYCARGIYDYPFAYWGQGTLVTVSS
# VL: DIQMTQSPSSLSASVGDRVTITCRASESVSIHGTHLMHWYQQKPGKAPKLLIYAASSLQSGVPSRFSGSGSETDFTLTISSLQPEDFATYYCQQSIEDPYTFGGGTKVEIK
# B7: P1AG7215 BCMA arm (antibody, V domains shown)
# VH: QVQLVQSGAEVKKPGASVKVSCKASGYTFTNYWMHWVRQAPGQGLEWMGIIHPNSGSTNYNEKFQGRVTMTRDTSTSTVYMELSSLRSEDTAVYYCARGIYDYPFAYWGQGTLVTVSS
# VL: DIQMTQSPSSLSASVGDRVTITCRASESVSIHGTHLMHWYQQKPGKAPKLLIYAASNLESGVPSRFSGSGSGTDFTLTISSLQPEDFATYYCQQSIEDPYTFGGGTKVEIK
# B8: P1AG7200 BCMA arm (antibody, V domains shown)
# VH: QVQLVQSGAEVKKPGASVKVSCKASGYTFTNYWMHWVRQAPGQGLEWMGIIHPNSGSTNYNEKFQGRVTMTRDTSTSTVYMELSSLRSEDTAVYYCARGIYDYPFAYWGQGTLVTVSS
# VL: DIQMTQSPSSLSASVGDRVTITCRASESVSIHGTHLMHWYQQKPGKAPKLLIYAASNLESGVPSRFSGSGSGTDFTLTISSLQPEDFATYYCQQSIEDPYTFGGGTKVEIK
# Biological target: T1, human BCMA on CHO cells (human)
# T1 chain: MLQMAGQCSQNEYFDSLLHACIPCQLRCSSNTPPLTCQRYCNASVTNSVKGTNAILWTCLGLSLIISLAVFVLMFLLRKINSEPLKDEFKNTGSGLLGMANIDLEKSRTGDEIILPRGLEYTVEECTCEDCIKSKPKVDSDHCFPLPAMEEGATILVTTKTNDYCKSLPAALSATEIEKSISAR
# Assay: FACS
row,EC50 [nM],Binder
1,16.3,B1
2,18.1,B2
3,5.55,B3
4,7.63,B4
5,25.6,B5
6,19.8,B6
7,16.5,B7
8,13.8,B8
